{
  "source": "paper PMC3919030",
  "about": "(Journal of molecular biology, 2013)",
  "binders": {"B1": {"name": "S. cerevisiae Vta1p (natural protein, UniProt Q06263 1-330, looked up)", "chain": "MASNAARVVATAKDFDKVGLGIIGYYLQLYAVELILSEEDRSQEMTALATELLDTIEAFKKEIGGESEAEDSDKSLHVMNTLIHDQEKAKIYMLNFTMSLYNEKLKQLKDGPWDVMLKRSLWCCIDLFSCILHLWKENISETSTNSLQKRIKYCKIYLSKLAKGEIGSSDEKTLDYADFADDSEEIKDEDVDHQTSDLENNNNDKVEGLAPKDQTTSYEPVDEVPEFIDDADSVNEEEQTVDKNEDAITKDEQQVVKKEVDLTRPSAPSEPAAAEHKSYTKDELTKIMDRASKIEQIQKLAKYAISALNYEDLPTAKDELTKALDLLNSI"}, "B2": {"name": "Sulfolobus solfataricus Vps4 (SsoVps4, wild type) (enzyme, UniProt Q97ZJ7 1-372, looked up)", "chain": "MSAQVMLEDMARKYAILAVKADKEGKVEDAITYYKKAIEVLSQIIVLYPESVARTAYEQMINEYKKRISYLEKVLPASSDGSGDNTSPPEEVVITEKPKVSFKDIVGLDDVKEALREAIIYPTKRPDLFPLGWPRGILLYGPPGCGKTMIAAAVANEIDSIFMQLDAASVMSKWLGEAEKNVANVFKMAREESKKQNKPAIIFIDELDALLGVYSTEVGGEARVRNQFLKEMDGLLDKSENYKVYVIGATNKPWRLDEAFLRRFQKRIYVPLPDYEQRLSLFKYYTSKIKLDTEVSLEELAKLTEGYTASDIRDIVQAAHIKVVKEMFKNNLGEPRTITLQDFKDILKVRMPSVNPELIKAYEAWTEKFKAL"}, "B3": {"name": "SsoVps4(F328A) (enzyme, Sulfolobus solfataricus, UniProt Q97ZJ7 1-372, looked up)", "chain": "B2 chain with F328A"}, "B4": {"name": "SsoVps4(E206Q) (enzyme, Sulfolobus solfataricus, UniProt Q97ZJ7 1-372, looked up)", "chain": "B2 chain with E206Q"}, "B5": {"name": "SsoVps4(R262A) (enzyme, Sulfolobus solfataricus, UniProt Q97ZJ7 1-372, looked up)", "chain": "B2 chain with R262A"}, "B6": {"name": "SsoVps4(R263A) (enzyme, Sulfolobus solfataricus, UniProt Q97ZJ7 1-372, looked up)", "chain": "B2 chain with R263A"}, "B7": {"name": "SsoVps4(85-372, E206Q) (domain or fragment, Sulfolobus solfataricus, UniProt Q97ZJ7 85-372, looked up)", "chain": "NTSPPEEVVITEKPKVSFKDIVGLDDVKEALREAIIYPTKRPDLFPLGWPRGILLYGPPGCGKTMIAAAVANEIDSIFMQLDAASVMSKWLGEAEKNVANVFKMAREESKKQNKPAIIFIDQLDALLGVYSTEVGGEARVRNQFLKEMDGLLDKSENYKVYVIGATNKPWRLDEAFLRRFQKRIYVPLPDYEQRLSLFKYYTSKIKLDTEVSLEELAKLTEGYTASDIRDIVQAAHIKVVKEMFKNNLGEPRTITLQDFKDILKVRMPSVNPELIKAYEAWTEKFKAL", "modifications": "selenomethionine-substituted"}, "B8": {"name": "S. cerevisiae Vps4p(E233Q) (enzyme, UniProt P52917 1-437, looked up)", "chain": "MSTGDFLTKGIELVQKAIDLDTATQYEEAYTAYYNGLDYLMLALKYEKNPKSKDLIRAKFTEYLNRAEQLKKHLESEEANAAKKSPSAGSGSNGGNKKISQEEGEDNGGEDNKKLRGALSSAILSEKPNVKWEDVAGLEGAKEALKEAVILPVKFPHLFKGNRKPTSGILLYGPPGTGKSYLAKAVATEANSTFFSVSSSDLVSKWMGESEKLVKQLFAMARENKPSIIFIDQVDALTGTRGEGESEASRRIKTELLVQMNGVGNDSQGVLVLGATNIPWQLDSAIRRRFERRIYIPLPDLAARTTMFEINVGDTPCVLTKEDYRTLGAMTEGYSGSDIAVVVKDALMQPIRKIQSATHFKDVSTEDDETRKLTPCSPGDDGAIEMSWTDIEADELKEPDLTIKDFLKAIKSTRPTVNEDDLLKQEQFTRDFGQEGN"}},
  "key": {"[1]": {"target": "T1, S. cerevisiae Vps4p (wild type) (S. cerevisiae, UniProt P52917 1-437)", "T1 sequence (looked up)": "B8 chain with Q233E", "test": "SEC"}, "[2]": {"target": "B8", "test": "SEC"}, "SEC [3]": {"target": "the molecule itself", "test": "SEC"}, "SEC [4]": {"target": "the molecule itself", "test": "SEC", "remark": "listed apart in the source"}, "AUC": {"target": "the molecule itself", "test": "AUC"}, "SEC [5]": {"target": "the molecule itself", "test": "SEC", "remark": "listed apart in the source"}, "crystal structure": {"target": "the molecule itself", "test": "crystal structure"}, "SEC [6]": {"target": "the molecule itself", "test": "SEC", "remark": "listed apart in the source"}, "SEC [7]": {"target": "the molecule itself", "test": "SEC", "remark": "listed apart in the source"}},
  "note": "Positions count from the first letter of the chain named. Numbers in names are those of the source.",
  "data": [
    {"binder": "B1", "values": [
      {"measurement": "binding result", "setting": "[1]", "result": "binds"},
      {"measurement": "binding result", "setting": "[2]", "result": "binds"}
    ]},
    {"binder": "B2", "values": [
      {"measurement": "stoichiometry N", "setting": "SEC [3]", "result": 12},
      {"measurement": "stoichiometry N", "setting": "SEC [4]", "result": "~6"},
      {"measurement": "stoichiometry N", "setting": "AUC", "result": 6}
    ]},
    {"binder": "B3", "values": [
      {"measurement": "stoichiometry N", "setting": "SEC [4]", "result": 2}
    ]},
    {"binder": "B4", "values": [
      {"measurement": "stoichiometry N", "setting": "SEC [3]", "result": 12},
      {"measurement": "stoichiometry N", "setting": "SEC [4]", "result": "~6"}
    ]},
    {"binder": "B5", "values": [
      {"measurement": "binding result", "setting": "SEC [5]", "result": "binds"}
    ]},
    {"binder": "B6", "values": [
      {"measurement": "binding result", "setting": "SEC [5]", "result": "binds"}
    ]},
    {"binder": "B7", "values": [
      {"measurement": "binding result", "setting": "crystal structure", "result": "binds"}
    ]},
    {"binder": "B8", "values": [
      {"measurement": "stoichiometry N", "setting": "SEC [6]", "result": 6},
      {"measurement": "stoichiometry N", "setting": "SEC [7]", "result": 12}
    ]}
  ]
}
